Paper doi:10.1101/2021.12.16.472884

What was measured:
Experiment in all cases: SEC
[1] = target: His6 tagged recombinant pNL4-3-derived IN R269A/K273A/D256R (HIV-1 (NL4-3))
[2] = target: His6 tagged recombinant pNL4-3-derived IN R269A/K273A/D256N/D270N (HIV-1 (NL4-3))
[3] = target: His6 tagged recombinant pNL4-3-derived IN R262A/R263A/D256R (HIV-1 (NL4-3))
[4] = target: His6 tagged recombinant pNL4-3-derived IN R262A/R263A/D256N/D270N (HIV-1 (NL4-3))

Question: “His6 tagged recombinant pNL4-3-derived IN R269A/K273A/D256R (enzyme)” was tested. Which stoichiometry N [1] did it give?
Answer: 4

Question: “His6 tagged recombinant pNL4-3-derived IN R269A/K273A/D256N/D270N (enzyme)” was tested. Which stoichiometry N [2] did it give?
Answer: 4

Question: How did the stoichiometry N [3] turn out when “His6 tagged recombinant pNL4-3-derived IN R262A/R263A/D256R (enzyme)” was run?
Answer: 4

Question: Which stoichiometry N [4] does the source give for “His6 tagged recombinant pNL4-3-derived IN R262A/R263A/D256N/D270N (enzyme)” here?
Answer: 4
